Columns and labels:
[1] = biological target: T1, recombinant soluble human HLA-G β2M MHC class I complex, dimer (human); test: competition ELISA, one antibody concentration; competitor coated ILT2-Fc
T1 construct: Non-biotinylated; also called HLA-G Dimer; dimeric HLA-G
Experimental: (§1) The ELISA was set up by coating the Fc tagged ILT2 and ILT4 respectively to Maxisorp microtiter plates. After incubation and washing steps, the respective antibodies were added at a concentration of 100 nM. Soluble His tagged monomeric, dimeric or trimeric HLA-G was added to the wells. After incubation and washing steps, detection of bound receptor was carried out by anti-His-antibody-POD conjugates.
(§2) The above tables summarize the blocking of interaction between rec. HLA-G proteins (monomer and oligomers) to its receptors ILT2 and ILT4 by the described HLAG antibodies at a concentration of 110 nM (*HLAG-0090 was tested at a concentration of 44 nM) as assessed by ELISA. Shown are the % inhibitions of the HLA-G/receptor interaction (for ILT2 and ILT4). The less pronounced ILT4 inhibition depends on the major β2M dependent interaction of this receptor.

[2] = biological target: T2, recombinant soluble human HLA-G β2M MHC class I complex, monomer (human); test: as above
T2 construct: His tagged; biotinylated where coated on streptavidin plates, non-biotinylated in SPR; also called HLA-G-0003; wt HLA-G (monomer)
Experimental: as §1, §2

[3] = biological target: T3, recombinant soluble human HLA-G β2M MHC class I complex, trimer (human); test: as above
T3 construct: Non-biotinylated; also called HLA-G Trimer; trimeric HLA-G
Experimental: as §1, §2

[4] = biological target: T2, recombinant soluble human HLA-G β2M MHC …; test: ELISA, biotinylated wt HLA-G monomer on streptavidin plate
Experimental: (§3) Streptavidin coated plates (Nunc, MicroCoat #11974998001) were coated with 25 μl/well biotinylated human wt HLA-G at a concentration of 250 ng/ml and incubated at 4° C. overnight. After washing (3×90 μl/well with PBST-buffer) 25 μl anti-HLA-G samples (1:3 dilution in OSEP buffer) or reference antibody (G233, Thermo/Pierce #MA1-19449, 500 ng/ml) were added and incubated 1 h at RT. After washing (3×90 μl/well with PBST-buffer) 25 μl/well goat-anti-mouse H+L-POD (Biorad #170-6561, 1:2000 in OSEP) or donkey-anti-rabbit IgG POD (GE #NA9340V, 1:5000 in OSE) was added and incubated at RT for 1 h on shaker. For detection of rat IgGs a mixture of goat-anti-rat IgG1-POD (Bethyl #A110-106P), goat-anti-rat IgG2a-POD (Bethyl #A110-109P) and goat-anti-rat IgG2b-POD (Bethyl #A110-111P) 1:10000 in OSEP was added and incubated at RT for 1 h on shaker. After washing (6×90 μl/well with PBST-buffer) 25 μl/well TMB substrate (Roche, 11835033001) was added and incubated until OD 2-3. Measurement took place on a Tecan Safire 2 instrument at 370/492 nm.
(§4) The above table summarizes the binding of different rat anti-human HLA-G monoclonal antibodies, derived from wt protein IMS. Shown are the relative EC50 values [ng/ml] of the respective binding to rec. wt monomeric, dimeric and trimeric HLA-G proteins as assessed by ELISA. The ELISA was set up by coating the biotinylated wt HLA-G antigen to strepdavidin plates. After incubation and washing steps, the respective antibodies were bound in a concentration range from 10-0 μg in 1:2 dilution steps. Detection of bound antibodies was carried out by anti-Fc-antibody-POD conjugates. EC50 values were determined from the resulting binding curves at the antibody concentrations generating the half-maximal signal. In case of the non-biotinylated HLA-G dimer and trimer antigens, immobilization was carried out by random coating on assay plates.

[5] = biological target: T3, recombinant soluble human HLA-G β2M MHC …; test: ELISA, HLA-G trimer coated at random on plate
Experimental: as §4

[6] = biological target: T2, recombinant soluble human HLA-G β2M MHC …; test: ELISA (EC50 rel), biotinylated wt HLA-G monomer on streptavidin plate
Experimental: as §3
The above table summarizes the binding of different rat anti-human HLA-G monoclonal antibodies, derived from wt protein IMS both of wt as well as OMT rats. Shown are the relative EC50 values [ng/ml] and maximal OD of the respective binding to rec. wt monomeric HLA-G protein or the socalled gegrafted HLA-G (HLA-A consensus sequence on HLA-G backbone) protein as assessed by ELISA. The ELISA was set up by coating the biotinylated wt HLA-G or consensus antigen to strepdavidin plates. After incubation and washing steps, the respective antibodies were bound in a concentration range from 10-0 μg in 1:2 dilution steps. Detection of bound antibodies was carried out by anti-Fc-antibody-POD conjugates. EC50 values were determined from the resulting binding curves at the antibody concentrations generating the half-maximal signal.

[7] = biological target: T2, recombinant soluble human HLA-G β2M MHC …; test: blocking ELISA on biotinylated wt HLA-G; competitor c-myc ILT-2
Experimental: Streptavidin coated plates (Nunc, MicroCoat #11974998001) were coated with 25 µl/well biotinylated human wt HLA-G at a concentration of 500-1000 ng/ml and incubated at 4° C. overnight. After washing (3×90 μl/well with PBST-buffer) 25 μl anti-HLA-G samples were added in decreasing concentrations starting at 10 or 3 μg/ml, then diluted in 1:3 or 1:2 steps and incubated 1 h at RT. After washing (3×90 μl/well with PBST-buffer) 25 μl/well c-myc-tagged recombinant ILT-2 receptor was added at a concentration of 200 ng/ml and incubated for 1 h at room temperature. […] After washing (3×90 μl/well with PBST-buffer), 25 μl/well TMB substrate (Roche, 11835033001) was added and incubated until OD 2-3. Measurement took place on a Tecan Safire 2 instrument at 370/492 nm
The table above summarizes the extent of ILT-2 and ILT-4 blocking of different antibodies bound to HLA-G at a concentration of 3 μg/ml, relative to an HLA-G:receptor interaction that is not blocked. HLA-G-0090 was tested in a separate experiment for ILT2 blockade, ILT4 blocking was not assessed

[8] = biological target: human HLA-G expressed on cells (JEG3 natural; SKOV3 HLA-G+ and PA-TU-8902 HLA-G+ transfectants) (human); test: cell-based or functional assay

Binder | % inhibition of ILT2 binding [1] [%] | % inhibition of ILT2 binding [2] [%] | % inhibition of ILT2 binding [3] [%] | EC50 [4] [nM] | EC50 [5] [nM] | EC50 [6] [ng/mL] | % inh. ILT2 (3 µg/ml antibody) [7] [%] | % TNF release (restoration) by monocytes (different donor) co-cultured with JEG-3 wt cells, LPS; antibody 0.16 µg/ml [8] [%] | % TNF release (restoration) by monocytes (different donor) co-cultured with JEG-3 wt cells, LPS; antibody 0.63 µg/ml [8] [%] | % TNF release (restoration) by monocytes (different donor) co-cultured with JEG-3 wt cells, LPS; antibody 2.5 µg/ml [8] [%] | % TNF release (restoration) by monocytes (different donor) co-cultured with JEG-3 wt cells, LPS; antibody 10 µg/ml [8] [%]
HLA-G-0039 (antibody, V domains shown, Human antibody from humanized OmniRat (OMT) rats) VH: EVQLLESGGGLVQPGGSLRLSCAASGFTFSSYAMNWVRQAPGKGLEWVSVISGSGVSTYYADSVKGRFTISRDNSRNTLSLQMNSLRAEDTAVYYCAKDGSYNYGYGDYFDYWGQGTLVTVSS VL: not shown | 25 | -450 | 70 | 7.35 | 5.29 | 7.35 | 14 | – | – | – | –
HLA-G-0041 (antibody, V domains shown, Human antibody from humanized OmniRat (OMT) rats) VH: EVQLLESGGGLVQPGGSLRLSCAASGFTFSTYGMSWVRQAPGKGLEWVSVISGGGVSTYYADSVKGRFTISRDNSKNTLYLQMNRLRAEDTAVYYCAKDGSYNYGYGDYFDYWGQGTLVTVSS VL: not shown | 23 | -437 | 67 | 4.95 | 4.87 | 8.6 | 17.4 | 44 | 66 | 59 | 40
HLA-G-0090 (antibody, V domains shown, Human antibody from humanized OmniRat (OMT) rats) VH: QVQLQQSGPGLLKPSQTLSLTCAISGDSVSSNRAAWNWIRQSPSRGLEWLGRTYYRSKWYNDYAVSVQGRITLIPDTSKNQFSLRLNSVTPEDTAVYYCASVRAVAPFDYWGQGVLVTVSS VL: not shown | – | – | – | – | – | 10.4 | – | 198 | 219 | 233 | 221
HLA-G-0031 (antibody, V domains shown, Rat monoclonal antibody obtained from CD rats) VH: QVKLMQSGAALVKPGTSVKMSCNASGYTFTDYWVSWVKQSHGKRLEWVGEISPNSGASNFDENFKDKATLTVDKSTSTAYMELSRLTSEDSAIYYCTRSSHGSFRWFAYWGQGTLVTVSS VL: AIVLNQSPSSIVASQGEKVTITCRASSSVSSNHLHWYQQKPGAFPKFVIYSTSQRASGIPSRFSGSGSGTSYSFTISRVEAEDVATYYCQQGSSNPYTFGAGTKLELK | 99 | 101 | 100 | 7.19 | 1.86 | 7.19 | 72.8 | 14 | 44 | 67 | 74
